Measurements as given in article PMC8521288.
Like-named read-outs stand apart in the source and are kept apart here.

Experiments:
human MMP-9 (hMMP-9) [1] = target: T1, human MMP-9 (hMMP-9) (Homo sapiens, UniProt P14780 107-457); assay: AuNS aggregation by strand displacement
human MMP-9 (hMMP-9) [2] = target: T1, human MMP-9 (hMMP-9); assay: AuNS aggregation by strand displacement; remark: listed apart in the source

T1 sequence (P14780 107-457): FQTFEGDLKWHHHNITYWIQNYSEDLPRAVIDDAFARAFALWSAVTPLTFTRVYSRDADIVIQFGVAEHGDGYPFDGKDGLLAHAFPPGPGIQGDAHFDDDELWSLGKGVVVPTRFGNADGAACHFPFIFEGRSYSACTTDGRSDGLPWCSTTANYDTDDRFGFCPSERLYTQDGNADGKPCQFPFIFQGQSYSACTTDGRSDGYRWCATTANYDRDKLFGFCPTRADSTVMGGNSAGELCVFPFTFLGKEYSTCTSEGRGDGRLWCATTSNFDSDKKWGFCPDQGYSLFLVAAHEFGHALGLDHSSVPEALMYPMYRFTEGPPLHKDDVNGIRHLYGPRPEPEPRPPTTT

| Binder | binding result (human MMP-9 (hMMP-9) [1]) | binding result (human MMP-9 (hMMP-9) [2]) |
| --- | --- | --- |
| control aptamer (annealed to control comp-1 on cAuNS-1; control sensor) (mixed, 3' ThioMC3-D (thiol) on control comp-1) DNA 1: CCGGTGTTCGAGACAAGAGTCCAGGG DNA 2: CTCTCGAACACCGGAA | no binding | – |
| MMP-9 aptamer (annealed to comp-1 on AuNS-1; MMP sensor) (mixed, 3' ThioMC3-D (thiol) on comp-1) DNA 1: TCGTATGGCACGGGGTTGGTGTTGGGTTGG DNA 2: GGTGTGCCATACGAAA | – | binds |
